Where no end group is shown, it is not given here. The star is where a group is joined. For = O=C*
B1: rWnt5a: recombinant Wnt5a protein (rWnt5a, R&D Systems, Minneapolis, Minn.) (protein, UniProt P41221 62-380, looked up)
Protein Wnt-5a: IIGAQPLCSQLAGLSQGQKKLCHLYQDHMQYIGEGAKTGIKECQYQFRHRRWNCSTVDNTSVFGRVMQIGSRETAFTYAVSAAGVVNAMSRACREGELSTCGCSRAARPKDLPRDWLWGGCGDNIDYGYRFAKEFVDARERERIHAKGSYESARILMNLHNNEAGRRTVYNLADVACKCHGVSGSCSLKTCWLQLADFRKVGDALKEKYDSAAAMRLNSRGKLVQVNSRFNSPTTQDLVYIDPSPDYCVRNESTGSLGTQGRLCNKTSEGMDGCELMCCGRGYDQFKTVQTERCHCKFHWCCYVKCKKCTEIVDQFVCK

Tests used:
22Rv1 cells = experiment: Matrigel invasion assay, 22Rv1 cells; format: cell-based, human; conditions: 24 h
Experimental: (§1) Four human PCa cell lines LNCaP, 22Rv1, PC-3, and DU145 were purchased from American Type Culture Collection [ATCC] (Manassas, Va.). The immortalized PNT2 normal human prostate epithelial cells (cat No. 95012613) were obtained from European Collection of Cell Cultures (ECACC), (Sigma-Aldrich, St. Louis, Mo.). LNCaP, 22Rv1, DU145 and PNT2 cells lines were cultured in RPMI-1640 medium, supplemented with 10% fetal bovine serum (FBS) and 1% pest (penicillin and streptomycin). PC-3 cells were grown in Hyclone Ham's F12 medium supplemented with 10% FBS and 1% pest. All in vitro experiments were performed when cells were ˜70% confluent. For invasion assay experiments cells were grown in serum free medium (SFM) for 24 hours. RPMI-1640 medium (R0883), FBS (F6178), penicillin streptomycin (P0781) were purchased from Sigma-Aldrich, whereas Ham's F12 medium (SH30026.01) was obtained from Thermo-Scientific (Waltham, Mass.). All cell lines were regularly tested for the absence of mycoplasma infection.
(§2) Cell invasion capacities were measured in a standard commercial invasion assay. In this study the inventors used BD BioCoat™ Matrigel™ Invasion Chambers (BD Biosciences, Bedford, Mass.) in accordance with the manufacturer's protocol. […] Invaded cells were counted either in an 460 inverted microscope or in Olympus BX51 Fluorescence Microscope (Olympus optical Co. Ltd, Japan).

DU145 cells = experiment: Matrigel invasion assay, DU145 cells; format: cell-based, human; conditions: 24 h
Experimental: as §1, §2

LNCaP cells = experiment: Matrigel invasion assay, LNCaP cells; format: cell-based, human; conditions: rWnt5a 0.4 μg/ml, 24 h, vs vehicle; FIG. 3B
Experimental: as §1, §2

PC3 cells [1] = experiment: Matrigel invasion assay, PC3 cells; format: cell-based, human; conditions: rWnt5a 0.4 μg/ml, 24 h, vs vehicle; FIG. 3B
Experimental: as §1, §2

PC3 cells [2] = conditions: addition of rWnt5a to PC3 cells; report by Wang et al [26]; cited from earlier work

| Molecule | relative invasion (22Rv1 cells; Foxy-5 100 microM, FIG. 6A) | relative invasion (DU145 cells; Foxy-5 100 microM, FIG. 6B) | relative invasion (22Rv1 cells; rWnt5a 0.4 μg/ml, vs vehicle, p=0.0001, FIG. 3B) | relative invasion (DU145 cells; rWnt5a 0.4 μg/ml, vs vehicle, p<0.0001, FIG. 3B) | relative invasion (LNCaP cells) | relative invasion (PC3 cells [1]) | response in migration wound scratch assay (PC3 cells [2]) |
| --- | --- | --- | --- | --- | --- | --- | --- |
| formylated derivative of MDGCEL (SEQ. ID. NO. 2) (For-MDGCEL; listed as Homo sapiens) [Foxy-5, the N-formylated hexapeptide Foxy5, Wnt5a derived peptide] | significantly inhibited the invasion | significantly inhibited the invasion | – | – | – | – | – |
| B1 | – | – | decreased the invasive behavior | decreased the invasive behavior | Neither the LNCaP nor the PC3 cells did respond | Neither the LNCaP nor the PC3 cells did respond | did not respond |

From patent US9278119B2, “Treatment of prostate cancer and a method for determining the prognosis for prostate cancer patients” (WNTRESEARCH AB, priority 2011, dated 2016)
